# In article PMC9713472 (2022):
# B1: AURKA-Venus WT [human] / TPX2 [human (endogenous in U2OS)] (parent complex)
# chain 1: MDRSKENCISGPVKATAPVGGPKRVLVTQQFPCQNPLPVNSGQAQRVLCPSNSSQRIPLQAQKLVSSHKPVQNQKQKQLQATSVPHPVSRPLNNTQKSKQPLPSAPENNPEEELASKQKNEESKKRQWALEDFEIGRPLGKGKFGNVYLAREKQSKFILALKVLFKAQLEKAGVEHQLRREVEIQSHLRHPNILRLYGYFHDATRVYLILEYAPLGTVYRELQKLSKFDEQRTATYITELANALSYCHSKRVIHRDIKPENLLLGSAGELKIADFGWSVHAPSSRRTTLCGTLDYLPPEMIEGRMHDEKVDLWSLGVLCYEFLVGKPPFEANTYQETYKRISRVEFTFPDFVTEGARDLISRLLKHNPSQRPMLREVLEHPWITANSSKPSNCQNKESASKQS
# chain 2: MSQVKSSYSYDAPSDFINFSSLDDEGDTQNIDSWFEEKANLENKLLGKNGTGGLFQGKTPLRKANLQQAIVTPLKPVDNTYYKEAEKENLVEQSIPSNACSSLEVEAAISRKTPAQPQRRSLRLSAQKDLEQKEKHHVKMKAKRCATPVIIDEILPSKKMKVSNNKKKPEEEGSAHQDTAEKNASSPEKAKGRHTVPCMPPAKQKFLKSTEEQELEKSMKMQQEVVEMRKKNEEFKKLALAGIGQPVKKSVSQVTKSVDFHFRTDERIKQHPKNQEEYKEVNFTSELRKHPSSPARVTKGCTIVKPFNLSQGKKRTFDETVSTYVPLAQQVEDFHKRTPNRYHLRSKKDDINLLPSKSSVTKICRDPQTPVLQTKHRARAVTCKSTAELEAEELEKLQQYKFKARELDPRILEGGPILPKKPPVKPPTEPIGFDLEIEKRIQERESKKKTEDEHFEFHSRPCPTKILEDVVGVPEKKVLPITVPKSPAFALKNRIRMPTKEDEEEDEPVVIKAQPVPHYGVPFKPQIPEARTVEICPFSFDSRDKERQLQKEKKIKELQKGEVPKFKALPLPHFDTINLPEKKVKNVTQIEPFCLETDRRGALKAQTWKHQLEEELRQQKEAACFKARPNTVISQEPFVPKKEKKSVAEGLSGSLVQEPFQLATEKRAKERQELEKRMAEVEAQKAQQLEEARLQEEEQKKEELARLRRELVHKANPIRKYQGLEIKSSDQPLTVPVSPKFSTRFHC
# Variants of: B1
# Experiment: in situ proximity ligation assay (isPLA); mitotic U2OS cells, endogenous TPX2, n ≥ 10 cells; read off a plot
row,response,Variant
1,~3.7 AU,chain 1 MDRSKENCISGPVKATAPVGGPKRVLVTQQFPCQNPLPVNSGQAQRVLCPSNSSQRIPLQAQKLVSSHKPVQNQKQKQLQATSVPHPVSRPLNNTQKSKQPLPSAPENNPEEELASKQKNEESKKRQWALEDFEIGRPLGKGKFGNVYLAREKQSKFILALKVLFKAQLEKAGVEHQLRREVEIQSHLRHPNILRLYGYFHDATRVYLILEYAPLGTVYRELQKLSKFDEQRTATYITELANALSYCHSKRVIHRDIKPENLLLGSAGELKIADFGWSVHAPSSRRTTLCGTLDYLPPEMIEGRMHDEKVDLWSLGVLCYEFLVGKPPFEANTYQETYKRISRVEFTFPDFVTEGARDLISRLLKHNPSQRPMIREVLEHPWITANSSKPSNCQNKESASKQS [chain 1 L374I]
2,~2.6 AU,chain 1 MDRSKENCISGPVKATAPVGGPKRVLVTQQFPCQNPLPVNSGQAQRVLCPSNSSQRIPLQAQKLVSSHKPVQNQKQKQLQATSVPHPVSRPLNNTQKSKQPLPSAPENNPEEELASKQKNEESKKRQWALEDFEIGRPLGKGKFGNVYLAREKQRKFILALKVLFKAQLEKAGVEHQLRREVEIQSHLRHPNILRLYGYFHDATRVYLILEYAPLGTVYRELQKLSKFDEQRTATYITELANALSYCHSKRVIHRDIKPENLLLGSAGELKIADFGWSVHAPSSRRTTLCGTLDYLPPEMIEGRMHDEKVDLWSLGVLCYEFLVGKPPFEANTYQETYKRISRVEFTFPDFVTEGARDLISRLLKHNPSQRPMLREVLEHPWITANSSKPSNCQNKESASKQS [chain 1 S155R]
3,~3 AU,chain 1 MDRSKENCISGPVKATAPVGGPKRVLVTQQFPCQNPLPVNSGQAQRVLCPSNSSQRIPLQAQKLVSSHKPVQNQKQKQLQATSVPHPVSRPLNNTQKSKQPLPSAPENNPEEELASKQKNEESKKRQWALEDFEIGRPLGKGKFGNVYLAREKQSKFILALKVLFKAQLEKAGVEHQLRREVEIQSHLRHPNILRLYGYFHDATRVYLILEYAPLGTVYRELQKLSKFDEQRTATYITELANALSYCHSKRVIHRDIKPENLLLGSAGELKIADFGWSVHAPSSRRTTLCGTLDYLPPEMIEGRMHDEKVDLWSLGVLCYEFLVGKPPFEANTYQETYKRISRVEFTFPDFVTEGARDLISRLLKHNPSQAPMLREVLEHPWITANSSKPSNCQNKESASKQS [chain 1 R371A]
4,~1.3 AU,"chain 1 MDRSKENCISGPVKATAPVGGPKRVLVTQQFPCQNPLPVNSGQAQRVLCPSNSSQRIPLQAQKLVSSHKPVQNQKQKQLQATSVPHPVSRPLNNTQKSKQPLPSAPENNPEEELASKQKNEESKKRQWALEDFEIGRPLGKGKFGNVYLAREKQSKFILALKVLFKAQLEKAGVEHQLRREVEIQSHLRHPNILRLYGYFHDATRVYLILEYAPLGTVYRELQKLSKFDEQRTATYITELANALSYCHSKRVIHRDIKPENLLLGSAGELKIADFGWSVHAPSSRRTTLCGTLDYLPPEMIEGRMHDEKVDLWSLGVLCYEFLVGKPPFEANTYQETYKRISRVEFTFPDFVTEGARDLISRLLKHNPSQAPMAREVLEHPWITANSSKPSNCQNKESASKQS [chain 1 R371A, chain 1 L374A]"
